# Results: publication PMC10261145, “Ceramide sensing by human SPT-ORMDL complex for establishing sphingolipid homeostasis” (Nature Communications, 2023)
# T1: serine palmitoyltransferase (SPT) complex (SPTLC1, SPTLC2, SPTssa) (human, UniProt O15269 1-473; O15270 1-562; Q969W0 1-71)
# T1 construct: SPTLC1, human, codon-optimized full-length cDNA; SPTLC2, human, codon-optimized full-length cDNA; SPTssa, human, codon-optimized full-length cDNA; Also purified alone, without ORMDLs; also called WT SPT complex; source: HEK293F, transiently co-transfected, purified (anti-Flag resin, SEC, GDN); copies: + +
# T1 sequence (looked up) 1: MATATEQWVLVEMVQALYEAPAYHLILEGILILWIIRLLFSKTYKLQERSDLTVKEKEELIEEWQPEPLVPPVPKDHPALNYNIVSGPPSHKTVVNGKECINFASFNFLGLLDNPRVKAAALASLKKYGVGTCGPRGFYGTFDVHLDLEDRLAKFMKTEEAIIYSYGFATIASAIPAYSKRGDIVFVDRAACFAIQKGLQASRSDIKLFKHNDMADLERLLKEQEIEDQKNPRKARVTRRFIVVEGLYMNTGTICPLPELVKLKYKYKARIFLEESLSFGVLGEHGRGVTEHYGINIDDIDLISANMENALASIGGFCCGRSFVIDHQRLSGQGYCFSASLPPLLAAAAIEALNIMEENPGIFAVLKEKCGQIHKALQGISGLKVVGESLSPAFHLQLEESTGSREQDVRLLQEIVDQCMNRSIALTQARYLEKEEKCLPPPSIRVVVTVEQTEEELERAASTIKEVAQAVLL
# T1 sequence (looked up) 2: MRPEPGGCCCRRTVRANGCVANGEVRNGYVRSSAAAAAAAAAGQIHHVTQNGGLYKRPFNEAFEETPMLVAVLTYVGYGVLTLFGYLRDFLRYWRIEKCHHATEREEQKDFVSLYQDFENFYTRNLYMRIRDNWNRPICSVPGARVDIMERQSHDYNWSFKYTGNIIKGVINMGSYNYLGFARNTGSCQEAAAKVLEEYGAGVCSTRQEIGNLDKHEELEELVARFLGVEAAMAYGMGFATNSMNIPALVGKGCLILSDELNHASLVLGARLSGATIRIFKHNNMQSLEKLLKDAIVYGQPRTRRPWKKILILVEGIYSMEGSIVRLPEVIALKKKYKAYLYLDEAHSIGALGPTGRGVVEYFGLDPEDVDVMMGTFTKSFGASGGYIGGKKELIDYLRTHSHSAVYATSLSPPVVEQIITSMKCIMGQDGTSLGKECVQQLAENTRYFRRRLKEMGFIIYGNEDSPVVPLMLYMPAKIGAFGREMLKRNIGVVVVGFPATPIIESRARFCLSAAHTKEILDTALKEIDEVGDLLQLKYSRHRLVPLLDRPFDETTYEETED
# T1 sequence (looked up) 3: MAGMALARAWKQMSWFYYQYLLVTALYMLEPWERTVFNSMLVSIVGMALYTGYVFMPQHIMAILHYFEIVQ
# Experiments:
# [1] = molecular target: T1, serine palmitoyltransferase (SPT) …; assay: cryo-EM structure; single-particle cryo-EM of co-expressed and co-purified SPT-ORMDL3 complexes at ~18 mg/ml in 25 mM HEPES pH 7.5, 150 mM NaCl, 0.01% GDN; apo, or WT preincubated with 1 mM C6-ceramide on ice for 1 hr; details: both partners purified
# [2] = molecular target: the molecule itself; assay: as above
Binder,binding result [1],binding result [2],also measured
"ORMDL3-ΔN2 (deletion of the Asn2 residue) (natural protein, human, UniProt Q8N138 1-153, looked up, ORMDL3, human, full-length cDNA with Asn2 deleted; also called ORMDL3-ΔN2 mutant; source: HEK293F, transiently co-transfected with the SPT subunits, purified as a complex (anti-Flag resin, SEC, GDN)) MVGTAHSEVNPNTRVMNSRGIWLSYVLAIGLLHIVLLSIPFVSVPVVWTLTNLIHNMGMYIFLHTVKGTPFETPDQGKARLLTHWEQMDYGVQFTASRKFLTITPIVLYFLTSFYTKYDQIHFVLNTVSLMSVLIPKLPQLHGVRIFGINKY",binds,,
"SPT-ORMDL3 (ORMDL3-ΔN2) complex (complex, human, SPTLC1, human, codon-optimized full-length cDNA; SPTLC2, human, codon-optimized full-length cDNA; SPTssa, human, codon-optimized full-length cDNA; ORMDL3, human, full-length cDNA with Asn2 deleted; One protomer; also called ORMDL3-ΔN2 variant; ORMDL3-ΔN2 protomer; source: HEK293F, transiently co-transfected, purified (anti-Flag resin, SEC, GDN); copies: + + +) chain 1: MATATEQWVLVEMVQALYEAPAYHLILEGILILWIIRLLFSKTYKLQERSDLTVKEKEELIEEWQPEPLVPPVPKDHPALNYNIVSGPPSHKTVVNGKECINFASFNFLGLLDNPRVKAAALASLKKYGVGTCGPRGFYGTFDVHLDLEDRLAKFMKTEEAIIYSYGFATIASAIPAYSKRGDIVFVDRAACFAIQKGLQASRSDIKLFKHNDMADLERLLKEQEIEDQKNPRKARVTRRFIVVEGLYMNTGTICPLPELVKLKYKYKARIFLEESLSFGVLGEHGRGVTEHYGINIDDIDLISANMENALASIGGFCCGRSFVIDHQRLSGQGYCFSASLPPLLAAAAIEALNIMEENPGIFAVLKEKCGQIHKALQGISGLKVVGESLSPAFHLQLEESTGSREQDVRLLQEIVDQCMNRSIALTQARYLEKEEKCLPPPSIRVVVTVEQTEEELERAASTIKEVAQAVLL chain 2: MRPEPGGCCCRRTVRANGCVANGEVRNGYVRSSAAAAAAAAAGQIHHVTQNGGLYKRPFNEAFEETPMLVAVLTYVGYGVLTLFGYLRDFLRYWRIEKCHHATEREEQKDFVSLYQDFENFYTRNLYMRIRDNWNRPICSVPGARVDIMERQSHDYNWSFKYTGNIIKGVINMGSYNYLGFARNTGSCQEAAAKVLEEYGAGVCSTRQEIGNLDKHEELEELVARFLGVEAAMAYGMGFATNSMNIPALVGKGCLILSDELNHASLVLGARLSGATIRIFKHNNMQSLEKLLKDAIVYGQPRTRRPWKKILILVEGIYSMEGSIVRLPEVIALKKKYKAYLYLDEAHSIGALGPTGRGVVEYFGLDPEDVDVMMGTFTKSFGASGGYIGGKKELIDYLRTHSHSAVYATSLSPPVVEQIITSMKCIMGQDGTSLGKECVQQLAENTRYFRRRLKEMGFIIYGNEDSPVVPLMLYMPAKIGAFGREMLKRNIGVVVVGFPATPIIESRARFCLSAAHTKEILDTALKEIDEVGDLLQLKYSRHRLVPLLDRPFDETTYEETED chain 3: MAGMALARAWKQMSWFYYQYLLVTALYMLEPWERTVFNSMLVSIVGMALYTGYVFMPQHIMAILHYFEIVQ chain 4: MVGTAHSEVNPNTRVMNSRGIWLSYVLAIGLLHIVLLSIPFVSVPVVWTLTNLIHNMGMYIFLHTVKGTPFETPDQGKARLLTHWEQMDYGVQFTASRKFLTITPIVLYFLTSFYTKYDQIHFVLNTVSLMSVLIPKLPQLHGVRIFGINKY",,binds,
"ORMDL3-N13A (natural protein, human, UniProt Q8N138 1-153, looked up, ORMDL3, human, full-length cDNA with N13A; also called ORMDL3-N13A mutant; source: HEK293F, transiently co-transfected with the SPT subunits, purified as a complex (anti-Flag resin, SEC, GDN)) MNVGTAHSEVNPATRVMNSRGIWLSYVLAIGLLHIVLLSIPFVSVPVVWTLTNLIHNMGMYIFLHTVKGTPFETPDQGKARLLTHWEQMDYGVQFTASRKFLTITPIVLYFLTSFYTKYDQIHFVLNTVSLMSVLIPKLPQLHGVRIFGINKY",binds,,
"SPT-ORMDL3 (ORMDL3-N13A) complex (complex, human, SPTLC1, human, codon-optimized full-length cDNA; SPTLC2, human, codon-optimized full-length cDNA; SPTssa, human, codon-optimized full-length cDNA; ORMDL3, human, full-length cDNA with N13A; One protomer; also called ORMDL3-N13A variant; ORMDL3-N13A protomer; source: HEK293F, transiently co-transfected, purified (anti-Flag resin, SEC, GDN); copies: + + +) chain 1: MATATEQWVLVEMVQALYEAPAYHLILEGILILWIIRLLFSKTYKLQERSDLTVKEKEELIEEWQPEPLVPPVPKDHPALNYNIVSGPPSHKTVVNGKECINFASFNFLGLLDNPRVKAAALASLKKYGVGTCGPRGFYGTFDVHLDLEDRLAKFMKTEEAIIYSYGFATIASAIPAYSKRGDIVFVDRAACFAIQKGLQASRSDIKLFKHNDMADLERLLKEQEIEDQKNPRKARVTRRFIVVEGLYMNTGTICPLPELVKLKYKYKARIFLEESLSFGVLGEHGRGVTEHYGINIDDIDLISANMENALASIGGFCCGRSFVIDHQRLSGQGYCFSASLPPLLAAAAIEALNIMEENPGIFAVLKEKCGQIHKALQGISGLKVVGESLSPAFHLQLEESTGSREQDVRLLQEIVDQCMNRSIALTQARYLEKEEKCLPPPSIRVVVTVEQTEEELERAASTIKEVAQAVLL chain 2: MRPEPGGCCCRRTVRANGCVANGEVRNGYVRSSAAAAAAAAAGQIHHVTQNGGLYKRPFNEAFEETPMLVAVLTYVGYGVLTLFGYLRDFLRYWRIEKCHHATEREEQKDFVSLYQDFENFYTRNLYMRIRDNWNRPICSVPGARVDIMERQSHDYNWSFKYTGNIIKGVINMGSYNYLGFARNTGSCQEAAAKVLEEYGAGVCSTRQEIGNLDKHEELEELVARFLGVEAAMAYGMGFATNSMNIPALVGKGCLILSDELNHASLVLGARLSGATIRIFKHNNMQSLEKLLKDAIVYGQPRTRRPWKKILILVEGIYSMEGSIVRLPEVIALKKKYKAYLYLDEAHSIGALGPTGRGVVEYFGLDPEDVDVMMGTFTKSFGASGGYIGGKKELIDYLRTHSHSAVYATSLSPPVVEQIITSMKCIMGQDGTSLGKECVQQLAENTRYFRRRLKEMGFIIYGNEDSPVVPLMLYMPAKIGAFGREMLKRNIGVVVVGFPATPIIESRARFCLSAAHTKEILDTALKEIDEVGDLLQLKYSRHRLVPLLDRPFDETTYEETED chain 3: MAGMALARAWKQMSWFYYQYLLVTALYMLEPWERTVFNSMLVSIVGMALYTGYVFMPQHIMAILHYFEIVQ chain 4: MNVGTAHSEVNPATRVMNSRGIWLSYVLAIGLLHIVLLSIPFVSVPVVWTLTNLIHNMGMYIFLHTVKGTPFETPDQGKARLLTHWEQMDYGVQFTASRKFLTITPIVLYFLTSFYTKYDQIHFVLNTVSLMSVLIPKLPQLHGVRIFGINKY",,binds,
"SPT-ORMDL3 complex (SPTLC1, SPTLC2, SPTssa, ORMDL3-FL) (complex, human, SPTLC1, human, codon-optimized full-length cDNA; SPTLC2, human, codon-optimized full-length cDNA; SPTssa, human, codon-optimized full-length cDNA; ORMDL3, human, codon-optimized full-length cDNA; One protomer; two protomers form the dimeric complex seen by cryo-EM; also called WT SPT-ORMDL3 complex; SPT-ORMDL3 protomer; source: HEK293F, transiently co-transfected, purified (anti-Flag resin, SEC, …)) chain 1: MATATEQWVLVEMVQALYEAPAYHLILEGILILWIIRLLFSKTYKLQERSDLTVKEKEELIEEWQPEPLVPPVPKDHPALNYNIVSGPPSHKTVVNGKECINFASFNFLGLLDNPRVKAAALASLKKYGVGTCGPRGFYGTFDVHLDLEDRLAKFMKTEEAIIYSYGFATIASAIPAYSKRGDIVFVDRAACFAIQKGLQASRSDIKLFKHNDMADLERLLKEQEIEDQKNPRKARVTRRFIVVEGLYMNTGTICPLPELVKLKYKYKARIFLEESLSFGVLGEHGRGVTEHYGINIDDIDLISANMENALASIGGFCCGRSFVIDHQRLSGQGYCFSASLPPLLAAAAIEALNIMEENPGIFAVLKEKCGQIHKALQGISGLKVVGESLSPAFHLQLEESTGSREQDVRLLQEIVDQCMNRSIALTQARYLEKEEKCLPPPSIRVVVTVEQTEEELERAASTIKEVAQAVLL chain 2: MRPEPGGCCCRRTVRANGCVANGEVRNGYVRSSAAAAAAAAAGQIHHVTQNGGLYKRPFNEAFEETPMLVAVLTYVGYGVLTLFGYLRDFLRYWRIEKCHHATEREEQKDFVSLYQDFENFYTRNLYMRIRDNWNRPICSVPGARVDIMERQSHDYNWSFKYTGNIIKGVINMGSYNYLGFARNTGSCQEAAAKVLEEYGAGVCSTRQEIGNLDKHEELEELVARFLGVEAAMAYGMGFATNSMNIPALVGKGCLILSDELNHASLVLGARLSGATIRIFKHNNMQSLEKLLKDAIVYGQPRTRRPWKKILILVEGIYSMEGSIVRLPEVIALKKKYKAYLYLDEAHSIGALGPTGRGVVEYFGLDPEDVDVMMGTFTKSFGASGGYIGGKKELIDYLRTHSHSAVYATSLSPPVVEQIITSMKCIMGQDGTSLGKECVQQLAENTRYFRRRLKEMGFIIYGNEDSPVVPLMLYMPAKIGAFGREMLKRNIGVVVVGFPATPIIESRARFCLSAAHTKEILDTALKEIDEVGDLLQLKYSRHRLVPLLDRPFDETTYEETED chain 3: MAGMALARAWKQMSWFYYQYLLVTALYMLEPWERTVFNSMLVSIVGMALYTGYVFMPQHIMAILHYFEIVQ chain 4: MNVGTAHSEVNPNTRVMNSRGIWLSYVLAIGLLHIVLLSIPFVSVPVVWTLTNLIHNMGMYIFLHTVKGTPFETPDQGKARLLTHWEQMDYGVQFTASRKFLTITPIVLYFLTSFYTKYDQIHFVLNTVSLMSVLIPKLPQLHGVRIFGINKY",,,stoichiometry N [2]: 2
